Test results reported in the Human Domainome abundance scans (Beltran et al. 2025).
± gives the uncertainty stated by the source.

B1: Nanos homolog 2, residues 63 to 115; numbered along this chain, P60321 (parent)
chain: CNFCKHNGESRHVYSSHQLKTPDGVVVCPILRHYVCPVCGATGDQAHTLKYCP

Variants of: B1
Assay: abundance fitness (aPCA) (normalised: wild type 0, dead -1); higher = more abundant; growth selection in yeast, the domain comes from the species named
Settings: Homo sapiens

Variant | abundance fitness
H12C | -0.06 ± 0.066
H12M | -0.012 ± 0.078
H12T | 0.035 ± 0.11
H12P | -0.069 ± 0.14
H12S | 0.126 ± 0.066
Y34H | 0.073 ± 0.12
Y34A | -0.071 ± 0.07
Y34K | -0.03 ± 0.14
Y34N | -0.134 ± 0.091
Y34W | -0.066 ± 0.12
Y34S | -0.097 ± 0.08
Y34F | -0.011 ± 0.091
Y34V | -0.033 ± 0.073
Y34P | -0.6 ± 0.14
Y34D | -0.32 ± 0.093
N2R | -0.768 ± 0.1
N2Y | -0.254 ± 0.12
N2G | -0.484 ± 0.074
N2H | -0.647 ± 0.12
N2T | -0.408 ± 0.087
N2D | -0.359 ± 0.13

Variant | abundance fitness
N2K | -0.255 ± 0.076
N2C | -0.701 ± 0.082
N2L | -0.864 ± 0.061
N2M | -0.861 ± 0.16
V38E | 0.287 ± 0.1
V38F | 0.084 ± 0.083
V38I | -0.16 ± 0.13
V38D | -0.184 ± 0.17
V38A | 0.001 ± 0.1
V38M | -0.003 ± 0.061
V38W | -0.222 ± 0.11
D44C | -0.391 ± 0.12
D44F | 0.009 ± 0.15
D44P | -0.274 ± 0.1
D44T | -0.14 ± 0.075
D44N | -0.047 ± 0.1
C52S | -0.432 ± 0.12
C52P | -0.249 ± 0.39
C52I | -0.731 ± 0.49
C52K | -0.488 ± 0.1
C52Y | -0.497 ± 0.13

Variant | abundance fitness
C52M | -0.788 ± 0.26
C52G | -0.732 ± 0.09
R32V | -0.473 ± 0.06
R32S | -0.225 ± 0.09
R32A | -0.241 ± 0.083
R32N | -0.522 ± 0.19
R32G | -0.352 ± 0.069
R32E | -0.49 ± 0.11
C4H | -0.688 ± 0.22
C4Y | -0.874 ± 0.16
C4Q | -0.959 ± 0.21
C4G | -0.802 ± 0.05
C4L | -1 ± 0.15
P29G | -0.588 ± 0.089
P29E | -0.195 ± 0.14
Y14Q | 0.002 ± 0.11
Y14E | -0.089 ± 0.099
Y14W | 0.208 ± 0.12
Y14V | -0.011 ± 0.085
V25Y | -0.092 ± 0.096
V25F | 0.166 ± 0.17

Variant | abundance fitness
V25T | 0.004 ± 0.071
V25C | -0.001 ± 0.089
V25D | -0.148 ± 0.1
V25S | -0.046 ± 0.092
V25L | 0.074 ± 0.095
S16V | -0.562 ± 0.095
S16C | 0.077 ± 0.14
H33A | 0.046 ± 0.075
H33R | 0.036 ± 0.05
H33P | -0.319 ± 0.084
H33F | -0.534 ± 0.16
H33Y | -0.335 ± 0.11
H33V | 0.033 ± 0.069
H33D | 0.127 ± 0.1
H33M | -0.028 ± 0.09
H33K | -0.013 ± 0.11
H33T | 0.068 ± 0.1
R11N | -0.131 ± 0.11
R11F | 0.07 ± 0.16
R11K | -0.317 ± 0.17
